Target: neuraminidase (NA) of A/California/04/2009 (Influenza A virus A/California/04/2009 …, UniProt C3W5S3, strain)
Assay: fluorescence imaging with FRAP of labelled antibody on transfected cells
Settings: one partner purified

B1: CD6 IgG (antibody, V domains shown)
VH: QVKLQESGGGLVQPKGSLKLSCAASGFTFNTYAMNWVRQAPGKGLEWVARIRSKSNNYATFYADSVKDRFTISRDDSQSMLYLQMHNLKTDDTAMYYCVRPSIYYYASGYLDVWGAGTTVTVSS
VL: QIVLSQSPAILSASPGEKVTMTCRTSSSVSYMHWYQQKPGSSPKPWIYATSNLASGVPFRFSGSGSGTSYSLTISRVEAEDAATYYCQQWNSNPPTFGGGTKLEIK
notes: not shown: ybbR, C-terminal, kept; copies: 2 + 2
Question: Does B1 bind?
Answer: binds
